# Results reported in PMC10502159 (2023).
# Experiments:
# TLR4 1-631 [1] = target: T1, TLR4 1-631 (Homo sapiens, UniProt O00206); assay: SPR
# RAGE 1-344 = RAGE 1-344 (Homo sapiens, UniProt Q15109); assay: SPR
# TLR4 1-631 [2] = target: T1, TLR4 1-631; assay: SPR (steady state)
# T1 sequence (O00206 1-631): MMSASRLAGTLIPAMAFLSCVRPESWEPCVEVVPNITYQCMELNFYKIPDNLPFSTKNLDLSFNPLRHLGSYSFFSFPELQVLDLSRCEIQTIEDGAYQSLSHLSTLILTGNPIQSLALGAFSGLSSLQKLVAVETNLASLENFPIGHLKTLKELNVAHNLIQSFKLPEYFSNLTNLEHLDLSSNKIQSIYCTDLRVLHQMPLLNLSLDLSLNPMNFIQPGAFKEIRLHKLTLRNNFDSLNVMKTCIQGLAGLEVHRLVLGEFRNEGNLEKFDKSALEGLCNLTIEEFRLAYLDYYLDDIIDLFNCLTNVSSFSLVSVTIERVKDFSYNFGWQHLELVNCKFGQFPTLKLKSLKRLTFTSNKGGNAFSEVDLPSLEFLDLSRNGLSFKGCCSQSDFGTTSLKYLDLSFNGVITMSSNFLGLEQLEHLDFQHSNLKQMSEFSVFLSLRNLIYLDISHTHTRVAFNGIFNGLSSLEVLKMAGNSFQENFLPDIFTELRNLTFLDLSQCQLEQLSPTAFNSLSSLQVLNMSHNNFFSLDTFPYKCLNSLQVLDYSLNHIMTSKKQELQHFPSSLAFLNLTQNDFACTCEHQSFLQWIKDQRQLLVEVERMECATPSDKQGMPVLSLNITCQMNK
# Chain of RAGE 1-344 (Q15109 1-344): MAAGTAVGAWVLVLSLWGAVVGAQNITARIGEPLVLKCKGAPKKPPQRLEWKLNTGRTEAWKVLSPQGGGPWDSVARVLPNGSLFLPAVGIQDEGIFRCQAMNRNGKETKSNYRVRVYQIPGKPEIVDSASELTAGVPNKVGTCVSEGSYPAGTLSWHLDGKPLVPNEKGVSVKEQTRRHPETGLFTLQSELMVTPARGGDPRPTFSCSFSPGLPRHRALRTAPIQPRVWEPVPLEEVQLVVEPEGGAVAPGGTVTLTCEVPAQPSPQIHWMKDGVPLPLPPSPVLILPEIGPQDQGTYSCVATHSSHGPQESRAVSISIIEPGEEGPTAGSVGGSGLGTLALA
Kd (TLR4 1-631 [1]),Kd (RAGE 1-344),Kd (TLR4 1-631 [2]),Binder
1140 nM,30.4 nM,–,"procathepsin L (pCTS-L) 17-333 (protein, mAb20 pre-exposed) ATLTFDHSLEAQWTKWKAMHNRLYGMNEEGWRRAVWEKNMKMIELHNQEYREGKHSFTMAMNAFGDMTSEEFRQVMNGFQNRKPRKGKVFQEPLFYEAPRSVDWREKGYVTPVKNQGQCGSCWAFSATGALEGQMFRKTGRLISLSEQNLVDCSGPQGNEGCNGGLMDYAFQYVQDNGGLDSEESYPYEATEESCKYNPKYSVANDTGFVDIPKQEKALMKAVATVGPISVAIDAGHESFLFYKEGIYFEPDCSSEDMDHGVLVVGYGFESTESDNNKYWLVKNSWGEEWGMGGYVKMAKDRRNHCGIASAASYPTV"
20.3 nM,3.1 nM,–,"procathepsin L (pCTS-L) 17-333 (protein, control c-mAb pre-exposed) ATLTFDHSLEAQWTKWKAMHNRLYGMNEEGWRRAVWEKNMKMIELHNQEYREGKHSFTMAMNAFGDMTSEEFRQVMNGFQNRKPRKGKVFQEPLFYEAPRSVDWREKGYVTPVKNQGQCGSCWAFSATGALEGQMFRKTGRLISLSEQNLVDCSGPQGNEGCNGGLMDYAFQYVQDNGGLDSEESYPYEATEESCKYNPKYSVANDTGFVDIPKQEKALMKAVATVGPISVAIDAGHESFLFYKEGIYFEPDCSSEDMDHGVLVVGYGFESTESDNNKYWLVKNSWGEEWGMGGYVKMAKDRRNHCGIASAASYPTV"
–,–,< 28.3 nM,procathepsin L (pCTS-L) 17-333 (protein) ATLTFDHSLEAQWTKWKAMHNRLYGMNEEGWRRAVWEKNMKMIELHNQEYREGKHSFTMAMNAFGDMTSEEFRQVMNGFQNRKPRKGKVFQEPLFYEAPRSVDWREKGYVTPVKNQGQCGSCWAFSATGALEGQMFRKTGRLISLSEQNLVDCSGPQGNEGCNGGLMDYAFQYVQDNGGLDSEESYPYEATEESCKYNPKYSVANDTGFVDIPKQEKALMKAVATVGPISVAIDAGHESFLFYKEGIYFEPDCSSEDMDHGVLVVGYGFESTESDNNKYWLVKNSWGEEWGMGGYVKMAKDRRNHCGIASAASYPTV
